Source: the supplement of paper PMC9170038

Tested on: MS2 coat protein
Assay: apparent KD of MS2 coat protein; designed switch direction (-1 OFF switch, 1 ON switch): -1; higher = weaker reporter binding
Method in brief: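 Designed RNA switches with common flanks were made on Illumina chips by stalled E. coli RNA polymerase. Titration with SNAP-549-labelled MS2 coat protein doubled from 0.7 or 1.5 nM up to 3 µM. Apparent KD is each design's median over clusters after curve-fitting normalised fluorescence.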

[1] = input ligand: microRNA oligo, concentration not stated
[2] = Eterna round: R95, input ligand: FMN 200 uM
[3] = Eterna round: R95, input ligand: microRNA oligo, concentration not stated
[4] = Eterna round: R95, input ligand: none

Sequence: CUAAUAGCAGCAGGAUAUCUCACAUGAGGAUCACCCAUGUGGGACCGCCACCUCGUGUGUAAAGAAGAGAAGGGCUCGCACUCC [Eternabot solution 6] (Eterna round: R96, puzzle: Exclusion NG 2)
- apparent KD of MS2 coat protein (input ligand: FMN 200 uM): 37.6 nM
- apparent KD of MS2 coat protein [1]: 12.8 nM
- apparent KD of MS2 coat protein (input ligand: none): 26.1 nM

Sequence: CUAAUAUAUCAGGAUAUGAUUUUAUGUGUUGGAUCAGAAGGGAUAACAUGAGGAUCACCCAUGUUGUGGAGUGA [JR_Ex6_Sub037] (Eterna round: R97, puzzle: Exclusion 6)
- apparent KD of MS2 coat protein (input ligand: FMN 200 uM): 271 nM
- apparent KD of MS2 coat protein (input ligand: none): 112 nM

Sequence: CUAGAUCAUUGGAUCUAGUACAUGAGGAUCACCCAUGUGACGAGUUACAUGUUAUAUAAGCUUUUUGCUCGUCAUUU [AK 1] (puzzle: Sensor v3, turn-off variant 1)
- apparent KD of MS2 coat protein [2]: 63.4 nM
- apparent KD of MS2 coat protein [3]: 81.1 nM
- apparent KD of MS2 coat protein [4]: 86.3 nM

Sequence: CUAGAUCUUCGGAUCUAGUACAUGAGGAUCACCCAUGUGACGAGUUUAUGGGUGAACAAGCUUUUUGCUCGUCUUAU [Sensor v3 - Turn-off variant 1 - 7] (puzzle: Sensor v3, turn-off variant 1)
- apparent KD of MS2 coat protein [2]: 71.4 nM
- apparent KD of MS2 coat protein [3]: 16.5 nM
- apparent KD of MS2 coat protein [4]: 84.8 nM

Sequence: CUAGCGAGUGUAGGAUAUCGGACUGUUUCAGUCUGAGAAGGACAUGAGGAUCACCCAUGUAUUGCUACGUGAGUAGCACGCUAG [JL ENG1 3.00] (Eterna round: R96, puzzle: Exclusion NG 1)
- apparent KD of MS2 coat protein (input ligand: FMN 200 uM): 32.9 nM
- apparent KD of MS2 coat protein [1]: 17.5 nM
- apparent KD of MS2 coat protein (input ligand: none): 19 nM

Sequence: CUAGCGAGUGUAGGAUAUCGGACUGUUUCAGUCUGAGAAGGACAUGAGGAUCACCCAUGUAUUGCUGCGUGAGUAGCACGCUAG [JL ENG1 3.99] (Eterna round: R96, puzzle: Exclusion NG 1)
- apparent KD of MS2 coat protein (input ligand: FMN 200 uM): 32.4 nM
- apparent KD of MS2 coat protein [1]: 15.6 nM
- apparent KD of MS2 coat protein (input ligand: none): 19.5 nM

Sequence: CUAGCUUCGGCUAGUACAAGCUUUUUGCUCGUCUUAUUAACAUGAGGAUCACCCAUGUCAAAGAGACCUCAUGUAUU [Sensor v3 - turn-off variant 2 - 2] (puzzle: Sensor v3, turn-off variant 2)
- apparent KD of MS2 coat protein [2]: 347 nM
- apparent KD of MS2 coat protein [3]: 15.5 nM
- apparent KD of MS2 coat protein [4]: 572 nM

Sequence: CUAUGGCAAGGAUAUACGUAUCAUGUGACGAUAGCUCAAGAACAUGAGGAUCACCCAUGUAGAAGGUGCGGAGA [Eternabot (L1) Solution 90] (Eterna round: R97, puzzle: Exclusion 2)
- apparent KD of MS2 coat protein (input ligand: FMN 200 uM): 54.2 nM
- apparent KD of MS2 coat protein (input ligand: none): 54.6 nM

Sequence: CUAUGUUAGCAGGAUAUGCCAUUAUUCUUUUUCGCAGAAGGGCUUACAUGAGGAUCACCCAUGUUACAUUUCUU [JR_E6_Sub086] (Eterna round: R96, puzzle: Exclusion 6)
- apparent KD of MS2 coat protein (input ligand: FMN 200 uM): 42.6 nM
- apparent KD of MS2 coat protein [1]: 14.9 nM
- apparent KD of MS2 coat protein (input ligand: none): 18.5 nM

Sequence: CUAUGUUAGCAGGAUAUGCCAUUAUUCUUUUUCGCAGAAGGGCUUACAUGAGGAUCACCCAUGUUACAUUUCUU [JR_E6_Sub086] (puzzle: Exclusion 6)
- apparent KD of MS2 coat protein [3]: 16.7 nM

Sequence: CUAUUCCGAGGAUAUACAUGAGGAUCACCCAUGUCGGGCCUCUGGCCUAAGGCCGAAAGUAGAAGGUGGGUUUC [JL Riri mod 10] (puzzle: Exclusion 3)
- apparent KD of MS2 coat protein [3]: 54.2 nM

Sequence: CUCAUACAUGAGGAUCACCCAUGUGAGGAUAUACUCCGCACCACACAGGUCGGGUAGCGUAGAAGGUAUUGGGU [Eternabot (L1) Solution 85] (Eterna round: R97, puzzle: Exclusion 1)
- apparent KD of MS2 coat protein (input ligand: FMN 200 uM): 96.3 nM
- apparent KD of MS2 coat protein (input ligand: none): 168 nM

Sequence: CUCCAGACAGGAUAUACGAGGCUGUGUUCCCAUUAUAGGACACAUGAGGAUCACCCAUGUAGAAGGGUCAAUGG [Eternabot (L1) Solution 28] (Eterna round: R97, puzzle: Exclusion 2)
- apparent KD of MS2 coat protein (input ligand: FMN 200 uM): 286 nM
- apparent KD of MS2 coat protein (input ligand: none): 742 nM

Sequence: CUCCGGCAUGUAGGAUAUGGAUCCGAUUAGGAUCCAGAAGGACAUGAGGAUCACCCAUGUACAUGUAAACAGUCAUCACCGGAC [salish99_ExNG1_r04_202] (Eterna round: R96, puzzle: Exclusion NG 1)
- apparent KD of MS2 coat protein (input ligand: FMN 200 uM): 284 nM
- apparent KD of MS2 coat protein [1]: 29.9 nM
- apparent KD of MS2 coat protein (input ligand: none): 44.2 nM

Sequence: CUCCGGCGUGUAGGAUAUGGUUCCGUUUAGGUUCCAGAAGGACAUGAGGAUCACCCAUGUACAUGUCGUCGGUCGUCACCGGGC [salish99_ExNG1_r04_213] (Eterna round: R96, puzzle: Exclusion NG 1)
- apparent KD of MS2 coat protein (input ligand: FMN 200 uM): 87.3 nM
- apparent KD of MS2 coat protein [1]: 28.8 nM
- apparent KD of MS2 coat protein (input ligand: none): 33.1 nM

Sequence: CUCCGGCGUGUAGGAUAUGGUUCCGUUUCGGUUCCAGAAGGACAUGAGGAUCACCCAUGUGCCUGUCGUCGGUCGUCACCGGGC [salish99_ExNG1_r04_217] (Eterna round: R96, puzzle: Exclusion NG 1)
- apparent KD of MS2 coat protein (input ligand: FMN 200 uM): 17.8 nM
- apparent KD of MS2 coat protein [1]: 10.3 nM
- apparent KD of MS2 coat protein (input ligand: none): 15.4 nM

Sequence: CUCCUACAUGAGGAUCACCCAUGUCAGGAUAUCUCAGUGGUACCUAAAUUUACCACCCAGAGAAGGGACGUGCA [Diradireer] (puzzle: Exclusion 1)
- apparent KD of MS2 coat protein [3]: 11.9 nM

Sequence: CUCCUGCGAGGAUAUACAUAGUGACGUCUGUUUAAUCUUAAACAUGAGGAUCACCCAUGUAGAAGGUGCGUCAC [EX2 #82] (Eterna round: R97, puzzle: Exclusion 2)
- apparent KD of MS2 coat protein (input ligand: FMN 200 uM): 13.1 nM
- apparent KD of MS2 coat protein (input ligand: none): 13.2 nM

Sequence: CUCGGACAUGAGGAUCACCCAUGUGAGGAUAUGAUGCGAUCGUCGAAAGACGAUAGCAUCAGAAGGUACAAAUG [Fiskers Ex 1 - 22] (Eterna round: R96, puzzle: Exclusion 1)
- apparent KD of MS2 coat protein (input ligand: FMN 200 uM): 60.2 nM
- apparent KD of MS2 coat protein [1]: 36.2 nM
- apparent KD of MS2 coat protein (input ligand: none): 50.3 nM

Sequence: CUCGGACAUGAGGAUCACCCAUGUGAGGAUAUGAUGCGAUCGUCGAAAGACGAUAGCAUCAGAAGGUACAAAUG [Fiskers Ex 1 - 22] (puzzle: Exclusion 1)
- apparent KD of MS2 coat protein [3]: 55.6 nM

Sequence: CUCGGGAGUCAGGAUAUCGGCACUUAUCAAUCACGAGAAGGGACGACAUGAGGAUCACCCAUGUGGGAAAAGAA [Ersoar] (puzzle: Exclusion 6)
- apparent KD of MS2 coat protein [2]: 252 nM
- apparent KD of MS2 coat protein [3]: 89.4 nM
- apparent KD of MS2 coat protein [4]: 84.7 nM

Sequence: CUCGUGCAGCUUUGCUGUACGAGUACAUGAGGAUCACCCAUGUAGGAUAUGGUACGCUUUGCGUGCUAGAAGGACGUGUGUAUG [JL EXNG3 1.39] (Eterna round: R96, puzzle: Exclusion NG 3)
- apparent KD of MS2 coat protein (input ligand: FMN 200 uM): 117 nM
- apparent KD of MS2 coat protein [1]: 29 nM
- apparent KD of MS2 coat protein (input ligand: none): 31.8 nM

Sequence: CUCUAGAAAGGAUAUACAUGAGGAUCACCCAUGUCCACGCCAUAACCGAGUGCCAUCUGUAGAAGGUUCAGAGU [Eternabot (L1) Solution 96] (Eterna round: R97, puzzle: Exclusion 3)
- apparent KD of MS2 coat protein (input ligand: FMN 200 uM): 52.5 nM
- apparent KD of MS2 coat protein (input ligand: none): 29.2 nM

Sequence: CUCUUGGCAGGAUAUGCUCUCUUAGACAUGAGGAUCACCCAUGUGCUCAUUCCUUCUUUUGCAGAAGGGCCUUAAC [JR_E5_Sub047] (puzzle: Exclusion 5)
- apparent KD of MS2 coat protein [3]: 63.9 nM

Sequence: CUCUUGUCAGGAUAUCAACGCCGCCCACACGGGCGGCGAAAUGAGAAGGGACAUGAGGAUCACCCAUGUUAAAA [Orsoesarqu] (puzzle: Exclusion 4)
- apparent KD of MS2 coat protein [2]: 20.3 nM
- apparent KD of MS2 coat protein [3]: 133 nM
- apparent KD of MS2 coat protein [4]: 212 nM

Sequence: CUGAGCAGACGGAGAUCCAACAUGAGGAUCACCCAUGUCUCAUAAGCUUUUUGCUUGUCUUAUCCUCCUCUGUUCUC [Mariedxeor] (puzzle: Sensor v3, turn-off variant 1)
- apparent KD of MS2 coat protein [2]: 17.7 nM
- apparent KD of MS2 coat protein [3]: 315 nM
- apparent KD of MS2 coat protein [4]: 14.4 nM

Sequence: CUGAGCUGAGGAUAUACAUGAGGAUCACCCAUGUAAAGCAGCUUGCGUACAGGCAGAUGUAGAAGGCAGUUCGG [Mod of JL 16 - Jieux - Exclusion 3] (Eterna round: R97, puzzle: Exclusion 3)
- apparent KD of MS2 coat protein (input ligand: FMN 200 uM): 37.4 nM
- apparent KD of MS2 coat protein (input ligand: none): 18.1 nM

Sequence: CUGAGGUAGCGGUCCUAUGACAUGAGGAUCACCCAUGUACCUUGCUUUGAGCUAAUUGCUCGUCUUAUGAUUCUCGG [Mat - Sensor v3 - turn-off var 1 - JL Mod - D45] (puzzle: Sensor v3, turn-off variant 1)
- apparent KD of MS2 coat protein [2]: 500 nM
- apparent KD of MS2 coat protein [3]: 457 nM
- apparent KD of MS2 coat protein [4]: 479 nM

Sequence: CUGAGUGGAGGAUAUACAUGAGGAUCACCCAUGUAAAGUAGCUUGCGUACAGGCAGAUGUAGAAGGUCAUUCGG [Mod of JL 12 - Jieux - Exclusion 3] (Eterna round: R97, puzzle: Exclusion 3)
- apparent KD of MS2 coat protein (input ligand: FMN 200 uM): 28.2 nM
- apparent KD of MS2 coat protein (input ligand: none): 10.3 nM

Sequence: CUGCUCCGUGUAGGAUAUCCGCGCAACCAACGCGGAGAAGGACAUGAGGAUCACCCAUGUAUGUUAUUAUCACGUGAAGCGUCC [Design 29] (Eterna round: R96, puzzle: Exclusion NG 1)
- apparent KD of MS2 coat protein (input ligand: FMN 200 uM): 32.5 nM
- apparent KD of MS2 coat protein [1]: 15.5 nM
- apparent KD of MS2 coat protein (input ligand: none): 28.1 nM

Sequence: CUGCUCCGUGUAGGAUAUGCAUACCACCACUAUGCAGAAGGACAUGAGGAUCACCCAUGUAUGUUAUUAUCACGUGUAGCGUCC [Design 18] (Eterna round: R96, puzzle: Exclusion NG 1)
- apparent KD of MS2 coat protein (input ligand: FMN 200 uM): 23 nM
- apparent KD of MS2 coat protein [1]: 14.9 nM
- apparent KD of MS2 coat protein (input ligand: none): 20.6 nM

Sequence: CUGCUCCGUGUAGGAUAUGCGCGCACCCAACGCGCAGAAGGACAUGAGGAUCACCCAUGUAUGUUAUUAUCACGUGAGGCGCAG [Design 34] (Eterna round: R96, puzzle: Exclusion NG 1)
- apparent KD of MS2 coat protein (input ligand: FMN 200 uM): 28.8 nM
- apparent KD of MS2 coat protein [1]: 14.4 nM
- apparent KD of MS2 coat protein (input ligand: none): 17.7 nM

Sequence: CUGCUCCGUGUAGGAUAUGCGCGCACCCACCGCGCAGAAGGACAUGAGGAUCACCCAUGUAUGUUAUUAUCACGUGAGGCGCGG [Design 36] (Eterna round: R96, puzzle: Exclusion NG 1)
- apparent KD of MS2 coat protein (input ligand: FMN 200 uM): 31.9 nM
- apparent KD of MS2 coat protein [1]: 17.7 nM
- apparent KD of MS2 coat protein (input ligand: none): 33.1 nM
